# Data published in the domain aggregation screens of Martell et al. (2025).
# Assay: soluble fraction after stress (log2 fold change); higher = more stays soluble; pooled small domains, quantitative proteomics
# Settings: stress: 75 degC
# 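Note: 20 min heating vs room temperature control held 20 min.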
row,Sequence,soluble fraction (log2)
1,HMSDSAFAEMRRELEALRNSNAEYERALSNFFPEAEDKALAAEAFYQNREYDELVAEREEANVIDGLKR,-0.198
2,HMSDSISLTLNGDLRRFRAHATIADLVRDIGLDPVKVAVERNLEIVSRSTLEDVVLADGDRLEIVHFV,-2.23
3,HMSDSLVLTGVAYVDGKPVVTLFDKVKKESLVVTDQPNLKGWTLVEATQSSDIKRATAKVNIGGEPVSIRY,-0.0165
4,HMSDTFENILQRLIKATGRKNASEMANALGLSPQSVYSAKTKGKIPPAWIFAAAERFNASADWIYFGY,-1.5
5,HMSDTSAIEKIIDEVLSDESSQKAINDIKNGNEKVYGFLVGQVMKKSQGKANPGLVQKMLREKIAK,0.116
6,HMSDYKSALQEAVQTNKQSIEYVLIKESGPAHNKTFTFEVRIDNISYGVGTAKSKKEAEQIAAKDALDKLV,-0.0877
7,HMSDYVLLYSGLNTSDTTFLAYSFQEKGIRYKMPNPDEIEVRVQDVDQARRIAAGAQLGGQVS,-0.536
8,HMSEEGTIPDVSGQDEASAQKALENAGFTNIKSEAVYSEEEQGTVIDTNPTAGTKVSKDTEITMQVSKGSE,0.248
9,HMSEEKLVFSIPDDIETMRIDKAIALETHLSRAQIAELFKENKILLNSKNSKRSEKVKPGDKISLEFIPKI,-0.0442
10,HMSEEVKSQPISILDLSTRASNGLKNEGIETIGELVKYSEDELLGLDKFGQNSLKEIKKKLEEIGLTLKEH,0.00703
11,HMSEFLTIVRAVYSGLSRRKVAAMHKVSRNTVSLYLRQARDQGWLTLEDLEKLDDLTVSQGVS,-2.08
12,HMSEFVIPLAKYNKALYTQVSLGMRFRMLFETEDSGVRRYMGTITGIGDLDPIRWKNSHWRNLQV,0.191
13,HMSEHLTLVVSDEDAGHRVDQFLVSRLAHMTRSQIQKLIKDGQVTIDTKLVRASTTVHTDNIVTIEFPPAV,-1.21
14,HMSEKLTLEAANEAAGMRIDKWLAMQLPELSRSRIEALISGGGVVVNGKNPSKSLKLKGGEQIELEIPE,-0.0607
15,HMSELLIVGSEQDNTRLDRFLADQYEEYTRSFLQKLIDQGNVSINGISVKKSGIKLKENDEIAVTLPEPQ,0.646
16,HMSELPLTQKVAIVMVALGEEASGEVMKHLSDYEIEEITQAIAGLKNISVELMDQILEEYEQHLIAG,-0.515
17,HMSELTKEIGKRIHDFRKSRGLNQEELARLIYKSKATLSKYEKGEIAIDLDTLKQLALALHVRMEQLLPPT,-1.5
18,HMSENDTILAKFVSVMGNKNLELVIFPDIAYLKGQVSNPEDKTKAETVAQSLLGGKPLVSLIEFE,-0.332
19,HMSENIQLQKEQLYQLIAQLPEQRQKIFRLHKIDNYSYQEISDFTGLSRKTIANHIYLAHQFILKKVKK,-3.76
20,HMSENKIMEIVQDLAREKSVILISHRLANVTAADKILYMEQGKIAESGTHEQLMAQNKAYAALFNKQQEL,-0.0206
21,HMSENLESEFFGIVVITQTLLQKELRDKPMTVELIRKTVEDVMSKHYSDSSVDKAKVEEELIRRFSTW,-1.32
22,HMSENMSQDLAQWYRLQQALHPNLDAPELWATDLTSQQRTVRDQLIQQWAQEKRDSLWSEISGD,-0.0639
23,HMSEPFDMAVPLTSGGRRLDQVLAELLPQHSRNRLQGWIRDGLLTLDGVTVTEPKRKLAGGEQLALLLP,-0.169
24,HMSEPTLESLRAEGAHHYDPARFHYLEVLARRMPGQHAAVQQVLASRLREAVAAYAGRRSLI,-0.157

row,Sequence,soluble fraction (log2)
1,HMSEQSEALRTGLDQLPINQRTALTLFHLHELNQSEVAKIMNISVGAVESLLFRGRQKMKQLLTSD,-1.39
2,HMSERIITFGEATREAMLEEMRADERVFVYGEDIAKQGGIFGQFAGMKDEFPERVLDTPISETALVGAG,0.157
3,HMSERVVVPDLTGKDLVAAQSELREISLAGREEGPGDKVRRQFPVAGVKVPKDTVVILYTED,0.0278
4,HMSESAGKALDILFYLARVEDEVSLARLSKETGMNKATALRYLAVLESWGVVEKRPSGWSLGLSLFELGSK,-2.05
5,HMSESGTFRAEAADAGRRLDVALAERLRLSRAAAQRLIAAGLVLVEGSPARKRQILHAGETVAWRAAPP,-1.03
6,HMSESLLTAAGFKTIAATTPEQKRHLEWLHPDQVTAVQLTGQHYYVYPDVAKSQLFVGTPKEYQAYLALRT,-0.16
7,HMSESLRDLVLSLIPEDGSTIGNRALITRLREDLPDLTDEDYHEVRDQLIAEGVLAKGRGQGGSVARANG,0.311
8,HMSETIVFGQQKAINTLSSEAGLSSAELNNYLKKRYQRPLFQLTVSEGADLIQGFQDGTLTKASITQYVSQ,-0.0878
9,HMSETQDQTTIEIEDMITVGTLAERLSIPVSTLIGELMKNGVMATVNEKIDFDTAQIIVGELKLPIELSKK,0.0487
10,HMSEYEYALHEFGITKKQSQRIFDRLSIADLEERINAIQTTLKQRSDIDNPAAYAWTVLNAE,-0.0603
11,HMSEYLDIHMAMEKLNRKEQLFVHLRFYEGLTQSEIAQRLFTSQVQISRLEKSVLEKMRQILSK,-2.2
12,HMSEYTRGELVSSLEAGEVAAVSIRPNRETPTGEAQIVLSDGQHRVLYVTDVREIEELVSSYGLNPQVEK,0.196
13,HMSFDNIKVGYISETAGYVKGISLADANEYAKLNPDTEFIFIDGDEKVRFLTINEVNGLTPKNLLRSDP,0.229
14,HMSFGFFELKSSDTDKLFAYLNNNEHFGNIKEENGLVTAFLTSELDAQTLNKLLFDNGIIASHLVKRK,-0.928
15,HMSFMPDPSIHDAITYTVRSGDYLGKISTTFGVKVSDLQKWNSIKSNIIYPGQKLTVWVSSNKRESLQ,-1.71
16,HMSFPLKRGSKGNRVTQLQNALVKKFGASILPKYGVDGMFGKEVEAALVRAKLPTSINESTYNSFV,0.125
17,HMSFVAYEEEKAIGMVRLIGDGGMSFYIKDFAVLPGHQGKGVGQMLLMELQQYLLEHKPADWAVSLE,-0.359
18,HMSGAKLLAPVTGTLLRYTVAEGTKVSEGQTVIMLESMKMELEINAHKAGVIHFTAAAGAQVAEGDSLAEI,-0.945
19,HMSGDKKLQMNLILEFAQQNESFRTKDIEELLQIRSSRARKLISDLVTEGRLEALGENRNRRYQLI,-1.05
20,HMSGDYRALYSSLPPERASSVVDALNVAGIPYRIQDSTGAIMVPAEQIYDARIRLAGQGLGK,0.104
21,HMSGEPKNERQIEVPDVTKKSIREANNILTSEGLRLRIEGTGLAVSQKPAAGTMVEPDTIITVTFQAP,0.441
22,HMSGHEVMVQRITAIIAELYQYGFVSRKKMMDEFNISERTLYRDLNRLGDRIVPDGDGIYRLAPAYA,-1.55
23,HMSGHIPGIKIKGVIFFDKGSSSNHIIATTENNSNLKLRVGETVQGAVLKSIHPNHVIFFHHNQLIEVGIG,-4.39
24,HMSGKGEFDQLLRSGEYVQAFQRANANGNVTLRRQQLLNLARHQAASGVGSGAIESLSTIQRI,0.00597

row,Sequence,soluble fraction (log2)
1,HMSGKMTVPNVVGKTETEAKSALSAKGFTNVRTETVDSTEAAGTVVKQSLDADSVQDPKTEIVLSVSNG,0.946
2,HMSGKWKIRILWYIAEYEVQRFGELRRRLGDITQSTLTEQLRELEQDGFVSRYVYQEVPSKVEYSLTE,0.197
3,HMSGKWSILILHALEQGPKRFNVLHRELSGITQATLTKQLRQLEEDGIILRKAYPQIPPKVEYQLTEIG,-1.82
4,HMSGNPLDTYYSKWSAEIKKGSPNAVISKEGDKYYVSIPGENRMAIIYENPHLIRMVNATRNIHVE,-0.092
5,HMSGPSDRDLFDEALALLSGSGREPDYHEARIRLGTLVEQFPESKWAEGAKALLSMLDRVSALQV,0.247
6,HMSGPVITEERNIANALISGLANMKETPTREQVERKAQQIAELFGYTGDLRNIITEAMISVDT,-0.0406
7,HMSGRPPTYTAEERSAVIAAALSRPADLGLPFASWTLDRLVAYLGEKGIGMKRSRMSEVLLAEGLKW,-2.02
8,HMSGSGYAYVDKYGYSHVVKDYDTAKNYASDGNVYNYSGSHKGGYAYDADNYRVPLDLPGSKPYG,0.191
9,HMSGSIIQQAENLERQFGDTREAILGTLSDPKMSEEILETLMERYNKQHGTNWDKNTWAEEWAKANK,0.682
10,HMSGSILVQVSATDLNIRKGPGTNYGTTGKYTGKGTFTIVETRSGQGSNAGWGKLKSGAGWISLDYAKR,-1.54
11,HMSGTESMIEGRGEARTAIDGEGKVFFQGEYWTAQSDQFIPQGAKVRIKKVEGLNLIVEEIK,0.065
12,HMSGTYIVTVQANTLDIYKSMTSNDTIGKANKGDVFQILEDMGGGYAKVSYNDVEGYISIKDGDTSIDEM,-0.389
13,HMSGVIVPDIYNKTLAEAVASLEGEGFSTEKKEGYSDTVPKGNVMSQKPEAGTSAERGSTVTITISQGPQ,0.0579
14,HMSGWIATGTATSTGNDVRVRSTPDATVNNNILLTLNKGNRFEIDGQTQNGFYHIKVNDTIGWISGLYVKE,-0.976
15,HMSGYFSDKKLNELFEQYLIMREKKGKPVVGYQLKILIDRLNQVAANTKEKIEVVSNAIAGDWNTFYPIKR,-2.07
16,HMSHDTLVYRLAQMLVKLNQGEKLDPQQLAEEFGVNLRTIQRDLNVRFAYLQLEKTDGRYHLDPTFL,-1.46
17,HMSHLTKKQEEVLLFIRDYYEEEGRSPSYSDIQHHFGLKSKSSVQDYIGYLKKAGFLQKSVGSRAIELV,-2.52
18,HMSHQIIIVAVELDPSTERIVYYLSKNGISINVLFFKVFQHGDEQFLSRVWLIDPSETQTNAALA,-0.726
19,HMSIESMVGRFGVVTKDVVANEMAGKVKVGREEFRATADIAVSSGTKVKVTHAEGITLTVVPE,0.611
20,HMSIGKEATPDDIVPNIRVYHATFGYGNVIKTDGVSHDKKAVVNFDSVGEKTLLLKFAKLILPY,-0.557
21,HMSIGLEGFVGKLGISTSDLRPSGWGEFDAKKLFVVTEGEFVDRKEKIEILSVDGNRILVRKIS,-1.56
22,HMSILPGVYRHYKGNHYQVFYLAKHSETLEDMVVYQALYGERGIWVRPASMWNETVDDQGKQVKRFTYI,-3.58
